Columns and labels:
[1] = target: T1, OCIF, monomer type (60 kDa) (human, UniProt O00300 22-401, limits assumed, 125I on tyrosine residues (Iodogen method)); assay: Scatchard plot of 125I-OCIF binding to ST2 cells (passage about 10) cultured with vitamin D3 and dexamethasone
T1 construct: Monomer type of rOCIF, 60 kDa; also called monomer-form OCIF
T1 sequence (looked up): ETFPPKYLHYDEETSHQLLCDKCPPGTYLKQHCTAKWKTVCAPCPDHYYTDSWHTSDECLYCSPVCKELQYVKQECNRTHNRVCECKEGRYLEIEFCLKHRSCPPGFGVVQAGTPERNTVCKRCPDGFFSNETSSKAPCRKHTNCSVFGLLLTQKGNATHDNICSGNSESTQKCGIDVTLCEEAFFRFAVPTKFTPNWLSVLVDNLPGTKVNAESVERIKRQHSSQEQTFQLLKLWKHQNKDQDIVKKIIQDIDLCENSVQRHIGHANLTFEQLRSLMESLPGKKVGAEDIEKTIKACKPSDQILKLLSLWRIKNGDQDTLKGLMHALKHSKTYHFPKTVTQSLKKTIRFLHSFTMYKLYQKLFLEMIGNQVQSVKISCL
Description: Solutions for measuring non-specific binding were prepared by further adding 400-fold concentration of monomer-form OCIF to these solutions. […] The results were subjected to Scatchard Plot analysis to determine the dissociation constant of OCIF and OCIF-binding protein and the number (site) of OCIF-binding protein per a ST2 cell. […] Based on the finding in Example 5(1) that osteoclasts-formation supported by the ST2 cells with passage number about 40 was more extensive than that with passage number about 10, the number (the site) of the protein of the present invention expressed on the ST2 cell with a passage number about 40 was assessed.

[2] = target: T2, osteoclastogenesis inhibitory factor (OCIF), recombinant, monomer or dimer type not specified at the place of … (human, UniProt O00300 22-401, 125I on tyrosine residues where used as 125I-labeled OCIF (Iodogen method)); assay: Scatchard plot of labeled OCIF on cell membrane (told in the general description)
T2 construct: Secreted protein, about 60 kDa as monomer and 120 kDa as dimer; also called recombinant OCIF
T2 sequence (looked up): T1 sequence (looked up)

B1: natural OCIF-binding protein (mouse OBM) on mouse osteoblastic stromal ST2 cells cultured with active-form vitamin D3 and dexamethasone (ligand)
chain: MRRASRDYGKYLRSSEEMGSGPGVPHEGPLHPAPSAPAPAPPPAASRSMFLALLGLGLGQVVCSIALFLYFRAQMDPNRISEDSTHCFYRILRLHENAGLQDSTLESEDTLPDSCRRMKQAFQGAVQKELQHIVGPQRFSGAPAMMEGSWLDVAQRGKPEAQPFAHLTINAASIPSGSHKVTLSSWYHDRGWAKISNMTLSNGKLRVNQDGFYYLYANICFRHHETSGSVPTDYLQLMVYVVKTSIKIPSSHNLMKGGSTKNWSGNSEFHFYSINVGGFFKLRAGEEISIQVSNPSLLDPDQDATYFGAFKVQDID
notes: also called the protein of the present invention; OBM on ST2 cells
- Kd [1]: 280 pM
- Kd [2]: 100 to 500 pM

— patent publication US7449185 (Daiichi Sankyo, dated 2008)
